In this experiment the test system is c-Met and EGFR. As to the kind of experiment: Co-localization of c-Met and EGFR by confocal microscopy. Type of experiment: cell-based. The following applies: 1 μg/mL, 37° C., 4 hours; MKN45 and EBC1 cell lines; FIGS. 7 and 8. On the procedure: The MKN45 cell line and the EBC1 cell line were prepared in amounts of 4×10^4 cell/well, respectively, to which L3-1Y-IgG2 prepared in Reference Example 1, anti-EGFR scFv prepared in Reference Example 2, and the anti-c-Met/anti-EGFR bispecific antibody ME03S prepared in Example 1 were each added individually or in combination to result in the concentration of 1 μg/mL per well (in case of the combination treatment, to result in 1 μg/mL each) and treated at 37° C. for 4 hours. The cells were treated with 4% (v/v) formaldehyde for 15 min to immobilize them on a plate, and washed three times with PBS. Thereafter, the cells were treated with a blocking buffer (0.5% triton x-100 and 5% donkey serum) at a room temperature for one hour and then treated with a 1:100 dilution of the first antibodies (c-Met primary antibody; #FAB3582A, R&D systems, EGFR primary antibody; #5616, Cell signaling) against c-Met and EGFR, respectively in amounts of 100 μA at 4° C. for 15 hours. After the cells were washed three time with PBS, they were treated with a 1:2000 dilution of the secondary antibody (#A21433, Invitrogen) in an amount of 100 μA at a room temperature for 1 hour and washed three times with PBS to prepare a plate with a mounting medium (#H-1200, Vector).

B1: anti-EGFR scFv: scFv with heavy chain variable region SEQ ID NO: 109, (GGGGS)3 linker, light chain variable region SEQ ID NO: 111 (antibody, V domains shown)
VH: QVQLVQSGAEVKKPGSSVKVSCKASGFTFTDYKIHWVRQAPGQGLEWMGYFNPNSGYSTYAQKFQGRVTITADKSTSTAYMELSSLRSEDTAVYYCARLSPGGYYVMDAWGQGTTVTVSS
VL: DIQMTQSPSSLSASVGDRVTITCRASQGINNYLNWYQQKPGKAPKRLIYNTNNLQTGVPSRFSGSGSGTEFTLTISSLQPEDFATYYCLQHNSFPTFGQGTKLEIKRT
modifications: (GGGGS)3 linker; Synthetic (heavy-chain variable region of anti-EGFR antibody); Synthetic (light-chain variable region of anti-EGFR antibody)
B1: the “location of c-Met and EGFR in the cells” value is “EGFR still locates on cell membranes”.

The record behind these values is US9657104B2, “Anti-c-Met/anti-EGFR bispecific antibodies” (Samsung Electronics Co., Ltd., priority 2013, dated 2017).
